Source: patent publication US20040018516A1

Legend:
Factor Xa = Factor Xa (UniProt P00742); test: cell-based or functional assay
[1] = molecular target: Factor VIIa/Tissue Factor (lipidated) complex (UniProt P08709); test: cell-based or functional assay
[2] = molecular target: Ixolaris (recombinant, mature protein of 140 amino acids)

Sequence of UniProt P08709 (P08709 61-466 limits assumed, chain 1 of 2): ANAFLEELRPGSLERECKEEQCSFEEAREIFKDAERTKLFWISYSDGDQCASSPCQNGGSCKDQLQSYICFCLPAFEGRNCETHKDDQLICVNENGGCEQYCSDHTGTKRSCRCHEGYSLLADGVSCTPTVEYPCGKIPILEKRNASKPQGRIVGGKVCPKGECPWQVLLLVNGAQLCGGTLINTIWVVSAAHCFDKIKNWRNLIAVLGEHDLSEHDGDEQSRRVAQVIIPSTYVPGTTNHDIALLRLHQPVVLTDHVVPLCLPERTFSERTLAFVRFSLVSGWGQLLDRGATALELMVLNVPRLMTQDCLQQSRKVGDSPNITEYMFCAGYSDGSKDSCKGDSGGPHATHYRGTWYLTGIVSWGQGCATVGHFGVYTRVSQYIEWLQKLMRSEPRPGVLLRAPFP
Sequence of UniProt P08709 (P13726 33-295 limits assumed, chain 2 of 2, further chain): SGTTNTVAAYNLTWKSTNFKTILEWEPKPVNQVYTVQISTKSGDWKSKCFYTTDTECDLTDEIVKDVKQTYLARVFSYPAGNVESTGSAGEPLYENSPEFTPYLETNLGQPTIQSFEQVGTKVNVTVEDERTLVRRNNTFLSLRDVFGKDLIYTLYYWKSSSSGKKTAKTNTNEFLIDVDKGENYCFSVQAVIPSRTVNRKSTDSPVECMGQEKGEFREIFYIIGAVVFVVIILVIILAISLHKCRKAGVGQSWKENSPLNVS

Ixolaris (recombinant, mature protein of 140 amino acids) (from UniProt Q964Q0 27-165)
ED50 of the increase of Factor Xa (125 pM) esterolytic activity on S2222 (Factor Xa): 159 pM | increase of amidolytic activity of Factor Xa (640 pM) by Ixolaris (400 pM) (Factor Xa): 40% | Residual activity (%) of VIIa/TF (6.4 pM)/S2288 (1 mM) with 32 nM Ixolaris [1]: 0% | inhibition of Factor X (200 nM) activation after preincubation of Factor VIIa/TF (1 nM/0.2 pM) with 100 pM Ixolaris [1]: 65%

Ixolaris/DEGR-Factor X complex (from UniProt P00742 41-488)
inhibition of Factor X (200 nM) activation after preincubation of Factor VIIa/TF with 100 pM Ixolaris/DEGR-Factor X [1]: > 85%

full-length human TFPI (recombinant, 4900PC) (from UniProt P10646 29-304)
IC50 of inhibition of Factor VIIa/TF-induced Factor X activation, at 15 nM Factor X [1]: 0.61 nM | IC50 of inhibition of Factor VIIa/TF-induced Factor X activation, at 75 nM Factor X [1]: 0.62 nM | IC50 of inhibition of Factor VIIa/TF-induced Factor X activation, at 200 nM Factor X [1]: 0.625 nM

B1: γ-carboxyglutamic acid domainless Factor Xa (des-Gla-Factor Xa) (protein)
chain: KDGDQCETSPCQNQGKCKDGLGEYTCTCLEGFEGKNCELFTRKLCSLDNGDCDQFCHEEQNSVVCSCARGYTLADNGKACIPTGPYPCGKQTLERIVGGQECKDGECPWQALLINEENEGFCGGTILSEFYILTAAHCLYQAKRFKVRVGDRNTEQEEGGEAVHEVEVVIKHNRFTKETYDFDIAVLRLKTPITFRMNVAPACLPERDWAESTLMTQKTGIVSGFGRTHEKGRQSTRLKMLEVPYVDRNSCKLSSSFIITQNMFCAGYDTKQEDACQGDSGGPHVTRFKDTYFVTGIVSWGEGCARKGKYGIYTKVTAFLKWIDRSMKTRGLPKAKSHAPEVITSSPLK
activity of 0.4 nM des-Gla-Factor Xa plus 1.6 nM Ixolaris (control without Ixolaris: 1.4±0.12 units of Vmax) [2]: 0.4 nM des-Gla-Factor Xa plus 1.6 nM Ixolaris: 2.78±0.1 units of Vmax | fold increase of des-Gla-Factor Xa proteolytic activity in the presence of 1.6 nM Ixolaris [2]: proteolytic activity increased 1.98 fold in the presence of Ixolaris
